Consider two substances from IntAct's records for PubMed 24464040.

Assay [1] concerns the target kap3_rat Prkar2b (UniProt P12369).
Assay [2] has the same target. The source holds these as a separate data set.

Sequence of kap3_rat Prkar2b (P12369 whole entry): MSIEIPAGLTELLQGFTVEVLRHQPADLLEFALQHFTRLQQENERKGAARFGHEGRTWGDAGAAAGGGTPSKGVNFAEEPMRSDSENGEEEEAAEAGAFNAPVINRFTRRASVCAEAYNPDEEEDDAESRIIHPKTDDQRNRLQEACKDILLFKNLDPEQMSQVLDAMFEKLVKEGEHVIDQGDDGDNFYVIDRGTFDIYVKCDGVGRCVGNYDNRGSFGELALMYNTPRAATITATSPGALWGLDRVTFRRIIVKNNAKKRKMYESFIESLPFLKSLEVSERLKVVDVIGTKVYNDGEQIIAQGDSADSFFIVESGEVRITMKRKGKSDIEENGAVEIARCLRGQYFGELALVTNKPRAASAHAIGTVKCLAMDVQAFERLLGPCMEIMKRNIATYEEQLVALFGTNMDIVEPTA

Regarding “Leucine-rich repeat serine/threonine-protein kinase 2 (Homo sapiens), Q5S007 G2385R”, the “effect of a mutation on the interaction” value with kap3_rat Prkar2b [1] is “increasing interaction”.
Consider “Leucine-rich repeat serine/threonine-protein kinase 2 (Homo sapiens), Q5S007 R1441C”, for which the “effect of a mutation on the interaction” value with kap3_rat Prkar2b [2] is “decreasing interaction”.
